Patent CN117192118A (DRAGONBOAT BIOPHARMACEUTICAL SHANGHAI CO LTD, dated 2023)

Tests used:
人CD47 [1] = target: T1, 人CD47 (human, UniProt Q08722 19-139, limits assumed); assay: ELISA competition, blocking of CD47 binding to SIRPα
T1 construct: The construct is not described

人CD47 [2] = target: T1, 人CD47; assay: BLI
人CLDN18.2 [3] = target: T2, 人CLDN18.2 (human, UniProt P56856-2 1-261, limits assumed); assay: BLI
T2 construct: The construct and its source are not described; P56856 is the CLDN18 entry; CLDN18.2 is its isoform 2 (A2)
T2 sequence (looked up): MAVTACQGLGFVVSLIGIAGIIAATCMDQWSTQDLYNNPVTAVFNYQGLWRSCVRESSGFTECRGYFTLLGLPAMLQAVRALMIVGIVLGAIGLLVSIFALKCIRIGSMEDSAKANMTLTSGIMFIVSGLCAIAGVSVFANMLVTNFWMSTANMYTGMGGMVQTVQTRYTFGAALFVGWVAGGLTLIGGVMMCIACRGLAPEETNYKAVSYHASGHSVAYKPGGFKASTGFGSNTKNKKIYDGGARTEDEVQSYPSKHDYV

人CD47 [4] = target: T1, 人CD47; assay: ELISA
人CLDN18.2 [5] = target: T2, 人CLDN18.2; assay: ELISA

T1 sequence (Q08722 19-139 limits assumed): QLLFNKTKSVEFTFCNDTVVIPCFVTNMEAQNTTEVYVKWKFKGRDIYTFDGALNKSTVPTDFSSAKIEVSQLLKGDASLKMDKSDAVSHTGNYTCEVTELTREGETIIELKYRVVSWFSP

- IC50 (人CD47 [1]): 2.2 µg/mL
- Kd (人CD47 [2]): 21.8 nM
- Kd (人CLDN18.2 [3]): 1.87 nM
- EC50 (人CD47 [4]): 0.0462 µg/mL
- EC50 (人CLDN18.2 [5]): 0.121 µg/mL
B1: 抗CD47-CLDN18.2双特异性抗体双抗A (bispecific antibody, human IgG1, kappa)
heavy: not shown
light: DIQMTQSPSSLSASVGDRVTITCRASQDISNHLNWYQQKPGKAPKLLIYYTSRIHSGVPSSFRGSGSGTDYTLTISSLQPEDIATYFCQQGYTLPFTFGSGTKLEIKRTVAAPSVFIFPPSDEQLKSGTASVVCLLNNFYPREAKVQWKVDNALQSGNSQESVTEQDSKDSTYSLSSTLTLSKADYEKHKVYACEVTHQGLSSPVTKSFNRGEC
notes: The short chain is the A7H3L3 kappa light chain; Expressed in CHO-K1; also called 本发明抗体
